{"source": "patent US20140329787A1", "about": "“PHYTOPHTHORA PHOSPHOLIPASE C” (Deakin University, priority 2011, published 2014)", "molecules": {"B1": {"name": "Alt-PLC: Phytophthora sojae alternative phospholipase C, SEQ ID NO: 5; codon optimised, his-tagged, expressed in E. coli (protein, listed as Phytophthora sojae)", "chain": "MASGWRQKPRLDPWDPPSPPPLLEEAAPKPKPKTSRFSRRSTRAKSHARQQAQHVELEVEEHAEQRDRDKRRSLLASMFGERAQSRASRSSSDASALQSQTQTLVQREKAFRLVRHGSDPLLNDAFYATQVQVGNFVKMGWLTKQGHMWKSWKTRFFVLFSDGTFAYYKNKGRKKIKGCMQLNDGVVSVQHVDIRLADKAYVFQIEKGFYKLLCYCCSQFEAELWVAALRSVRRVAPPCYEMDLTATEEKAGSNAVTRHLNKIFITDKQIAKRLAEFKANTHDHSYAAIHNFIVELDDAIIDRHHLEFYQDAEIELLPGNELVRLIRRHVEDRVFIPLYAEAYASLETDKVKTRRSNLEQHLKVLKQKTQADFGISKDLSVCNWKQAISVVNMLDCVSLPTHKFEVILSAGKAIMELIAQYNGELFEVSDEMLTAIFRYVVTMSSLSDLPTLRALLKYGYQHHPASQNKANVVTAFLNAIKWVECFEAGDESYQFDSLALAGSRVSVSISTNDVGIQFTTDGNGRGAIVYNIRKQSQAALSAAIVPGLSLIAINHEPVIALEFAVKIDYSHRIEVDKSASYLGSQMPNSSWKMVDKDDHVSRSARPGSVDDLIRELVAGTEVDLVDVVSFVLFLDSFSSLNEVVDRLSAHVRNGVKSHGLIRLFIVVLLFRQSETKEADDLRDRFYSLISLNIDAKDKLVPLVEEYMSLYKEYFSLRGAGNYAVNYQAIPGMMSKVYGMESGFEPVSSGPFSAHLHRFVDAERWAEQCTLLTHAVFCKIPVRDFIPTGSKKKHSVEFTSIKRWFQHISAFVINAVLVQNTPEERAEVISFYLKLSLDAKKMMNEMQLLSDKGCREMNRLMRKTANPSMPYIGLYLQGFVGLNELPAFDKEGLVNANRLRRMGELAMEILHRQSVAYTLQHDEDVNKLLHVSLPYSSEESRYARSLELEPREADAIPLSDRGSYTLIDDDVDLENEVRESIGGDGTFGFRQWIRKQQVVHRNRSRSSVIALYEWV", "modifications": "His tag", "notes": "codon optimised, his-tagged, expressed in E. coli"}}, "key": {"[1]": {"test_system": "P. cinnamomi", "experiment": "Hyphal growth rate", "format": "cell-based, Phytophthora cinnamomi", "conditions": "data not shown"}, "[2]": {"test_system": "P. sojae", "experiment": "Hyphal growth rate", "format": "cell-based, Phytophthora sojae", "conditions": "data not shown"}, "[3]": {"test_system": "Phytophthora cinnamomi", "format": "cell-based"}, "[4]": {"test_system": "E. coli", "experiment": "Growth curves of E. coli expressing Alt-PLC and truncations", "format": "cell-based", "conditions": "relative to E. coli not expressing Alt-PLC", "protocol": "An analysis of function of the Alt-PLC truncations was performed using growth curves of Alt-PLC expressing E. coli cells (FIG. 28).\nTherefore, growth curves of E. coli expressing Alt-PLC and the truncations allow determination of Alt-PLC function in vivo."}, "[5]": {"experiment": "In-solution hydrolysis of diC8-PI(4,5)P2, products by ESI-MS, TLC and NMR", "format": "biochemical", "conditions": "with calcium, 60 min", "protocol": "Five milligrams of lyophilised, synthetic 1,2-dioctanol-D-myo-phosphatidylinositol(4,5)bisphosphate (diC8-PI(4,5)P2: Echelon Biosciences, USA) was resuspended in 500 μl of 20 mM tris pH:8.0; to this, 100 μl of 1M CaCl2 and 400 μl of refolded Alt-PLC (0.1 mg/ml) in buffer A4 were added and the reaction allowed to proceed for 60 min. The reaction was stopped by phase separation with the addition of 3.75 ml of chloroform:methanol:12N HCl (2:4:0.1) and mixed thoroughly before the addition of 1.25 ml of chloroform. The solution was then vortexed for 30 sec before addition of 1.25 ml of ddH2O and then further vortexed for 30 seconds. The sample was then centrifuged at 1000 rpm for 10 min in a swinging bucket rotor at 4° C. The upper aqueous layer (containing inositols) and the lower chloroform layer (containing all lipids and phospholipids) were separately lyophilised in glass tubes and stored at −80° C. for further analysis. Further separation of polar and non-polar lipids, developed by the hydrolysis reaction, was performed by resuspending the lyophilised, chloroform layer in 1 mil 75% methanol and then adding 1 ml of n-hexane. […]\nThe unusual nature of this double hydrolysis led the Applicant to perform NMR on the MAG and acyl arg fractions as an additional confirmation of the ESI-MS results. […] NMR spectra were recorded at 400 MHz at −55° C. […]"}, "[6]": {"experiment": "IP3 production from bovine brain phosphatidylinositols, ESI-MS", "format": "biochemical", "conditions": "CaCl2 or EDTA; three protein batches", "protocol": "All mass spectra were produced using a 6210 MSDTOF mass spectrometer (Agilent Technologies, Australia) with the following conditions: drying gas, nitrogen ([…], 350° C.); nebulizer gas, nitrogen (16 psi); capillary voltage, ±4.0 kV; vaporizer temperature, 350° C.; and cone voltage, 60V, 5 μL.\nTo test for phospholipase C-like function of Alt-PLC, electrospray ionization mass spectrometry (ESI-MS) was utilized to identify of inositol(1,4,5)triphosphate (IP3) produced from reactions of Alt-PLC with lipids.\nThree separate batches of protein (purified from independent transformations) were prepared and reacted with a mixture of phosphatidylinositols from bovine brain in the presence of CaCl2 or in the presence of EDTA. Chloroform phase-extraction was performed and the aqueous phase analysed for the presence of IP3 by ESI-MS."}, "[7]": {"experiment": "Hydrolysis of PIPx, neutral-lipid TLC", "format": "biochemical", "conditions": "0.2 mg/ml enzyme; listed as Alt-PLC1", "protocol": "Lipid samples of 0.5 μl were applied to silica 60 TLC plates and allowed to dry prior to the addition of more sample. Neutral lipids were applied to 10×20 cm pre-absorption zone-bearing silica-60 plates (Sigma-Aldrich, USA) and resolved in a solvent mixture of hexane:diethyl ether:acetic acid (9:1:0.5). Phospholipids were resolved on 20×20 cm silica-60 plates (Merck, Australia), without a pre-absorption zone, in a solvent mixture of chloroform:methanol:acetic acid:water (90:40:12:2). Lipids were detected by spraying the dried TLC plates with a solution of 0.05% rhodamine B (Sigma) in methanol and destaining was performed by repeated spraying with 5 M KOH. Lipid spots were then visualised following UV excitation at 312 nm.\nAlt-PLC and Alt-PLC2 were refolded into buffer A4 at a concentration of 0.2 mg/ml and a hydrolysis reaction was performed using PIPx (mixed phosphatidylinositols, Sigma) as the substrate. The reaction was performed as described previously and the resultant neutral lipids were extracted by diethyl ether phase extraction. The samples were analysed by neutral-lipid thin-layer chromatography, on silica 60 plates with a pre-absorption zone; the mobile phase employed was hexane: diethyl ether: acetic acid (9:1:0.5)."}}, "note": "Entries after “also recorded” stand apart in the source; their conditions may differ."}
{"molecule": "COc1ccc2c(c1)CC[C@@H]1[C@@H]2CC[C@]2(C)[C@@H](NCCCCCCN3C(=O)C=CC3=O)CC[C@@H]12", "note": "[U-73122]", "values": [{"measurement": "hyphal growth rate", "setting": "[1]", "result": "markedly reduces hyphal growth rate"}, {"measurement": "hyphal growth rate", "setting": "[2]", "result": "markedly reduces hyphal growth rate"}, {"measurement": "PIP2 level and distribution in hyphae", "setting": "[3]", "result": "PIP2 increased; also recorded: PIP2 showed an almost uniform membrane distribution, indicating uncontrolled accumulation"}]}
{"molecule": "B1", "values": [{"measurement": "growth of expressing E. coli (function in vivo)", "setting": "[4]", "result": "characteristic reduced growth of the bacteria"}, {"measurement": "products of hydrolysis", "setting": "[5]", "result": "1-monacylglycerol, a free fatty acid (FFA) and inositol(1,4,5)triphosphate"}, {"measurement": "IP3 production (m/z 160.6)", "setting": "[6]", "result": "IP3 was produced in the Ca^2+-activated reactions, but was not produced in the presence of EDTA"}, {"measurement": "monoacylglycerol production / phospholipase C activity level in vitro", "setting": "[7]", "result": "detection of monoacylglycerol production; also recorded: higher activity level in vitro than Alt-PLC2"}]}
